This is an account of results in US20090118184A1 (UNIVERSITY OF ROCHESTER, published 2009).

For this assay, the target named is T1, factor VIIIa A1/A3C1C2 dimer, E1829A (human, UniProt P00451 20-391; P00451 1709-2351).
T1 sequence 1: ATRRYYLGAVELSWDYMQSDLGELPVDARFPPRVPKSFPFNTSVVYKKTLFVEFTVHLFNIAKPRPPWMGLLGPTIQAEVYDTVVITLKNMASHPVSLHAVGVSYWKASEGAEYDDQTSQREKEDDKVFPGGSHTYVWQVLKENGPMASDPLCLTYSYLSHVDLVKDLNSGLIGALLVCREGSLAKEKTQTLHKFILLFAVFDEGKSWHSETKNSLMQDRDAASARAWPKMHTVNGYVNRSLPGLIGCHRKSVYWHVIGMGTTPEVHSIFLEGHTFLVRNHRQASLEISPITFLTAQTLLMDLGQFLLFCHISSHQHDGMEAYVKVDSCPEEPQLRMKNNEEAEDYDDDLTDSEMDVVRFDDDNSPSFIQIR
T1 sequence 2: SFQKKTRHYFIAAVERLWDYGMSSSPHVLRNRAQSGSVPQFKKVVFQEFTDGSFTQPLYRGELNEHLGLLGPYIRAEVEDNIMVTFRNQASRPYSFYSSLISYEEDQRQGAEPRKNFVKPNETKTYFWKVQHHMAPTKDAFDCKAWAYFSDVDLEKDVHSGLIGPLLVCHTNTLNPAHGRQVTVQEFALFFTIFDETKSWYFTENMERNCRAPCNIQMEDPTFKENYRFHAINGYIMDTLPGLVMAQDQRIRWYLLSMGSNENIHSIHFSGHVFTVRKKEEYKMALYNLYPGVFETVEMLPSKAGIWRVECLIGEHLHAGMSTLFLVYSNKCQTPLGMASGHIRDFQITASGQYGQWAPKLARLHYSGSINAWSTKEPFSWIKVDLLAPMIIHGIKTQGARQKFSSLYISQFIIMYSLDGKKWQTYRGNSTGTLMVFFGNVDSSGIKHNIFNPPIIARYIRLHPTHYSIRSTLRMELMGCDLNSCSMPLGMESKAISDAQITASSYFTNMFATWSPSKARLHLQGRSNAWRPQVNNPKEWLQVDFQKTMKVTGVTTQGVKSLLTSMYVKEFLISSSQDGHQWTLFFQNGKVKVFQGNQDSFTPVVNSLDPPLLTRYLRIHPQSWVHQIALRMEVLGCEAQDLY
The assay can be described thus: cell-based or functional assay.

B1: factor VIIIa A2 subunit, wild type (other)
chain: SVAKKHPKTWVHYIAAEEEDWDYAPLVLAPDDRSYKSQYLNNGPQRIGRKYKKVRFMAYTDETFKTREAIQHESGILGPLLYGEVGDTLLIIFKNQASRPYNIYPHGITDVRPLYSRRLPKGVKHLKDFPILPGEIFKYKWTVTVEDGPTKSDPRCLTRYYSSFVNMERDLASGLIGPLLICYKESVDQRGNQIMSDKRNVILFSVFDENRSWYLTENIQRFLPNPAGVQLEDPEFQASNIMHSINGYVFDSLQLSVCLHEVAYWYILSIGAQTDFLSVFFSGYTFKHKMVYEDTLTLFPFSGETVFMSMENPGLWILGCHNSDFRNRGMTALLKVSSCDKNTGDYYEDSYEDISAYLLSKNNAIEPR
With B1, the “rate of factor VIIIa decay compared with WT, factor IXa present” value turned out to be 5 fold.
